# Measured values: paper PMC7962898
# Target: Porcine Epidemic Diarrhea Virus Spike ectodomain, Sf9 expressed (Porcine epidemic diarrhea virus (PEDV) USA/Colorado/2013) (UniProt Q91AV1)
# Test: cryo-EM structure
substance,measurement,value
"Porcine Epidemic Diarrhea Virus Spike ectodomain, Sf9 expressed (from UniProt Q91AV1 26-1322) (domain or fragment)",stoichiometry N,3
